How the values were obtained:
human β2 (hβ2) (human) [1] = molecular target: T1, human β2 (hβ2) (human) (UniProt Q9Y691)
T1 sequence: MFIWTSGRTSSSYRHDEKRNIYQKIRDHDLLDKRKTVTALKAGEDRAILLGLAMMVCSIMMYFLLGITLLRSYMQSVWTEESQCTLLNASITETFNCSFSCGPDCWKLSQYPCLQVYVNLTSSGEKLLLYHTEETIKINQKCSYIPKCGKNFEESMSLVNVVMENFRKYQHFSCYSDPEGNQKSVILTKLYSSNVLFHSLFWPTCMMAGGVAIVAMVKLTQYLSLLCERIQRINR

human β2 (hβ2) (human) [2] = molecular target: T1, human β2 (hβ2) (human); remark: listed apart in the source
[3] = molecular target: mouse Slo1 (mSlo1) α-subunit (mouse) (UniProt Q08460)
[4] = molecular target: β3-Gρ (full-length human BK β3a subunit with C-terminal eGFP-ρ1D4) (human); assay: pull-down + SEC; plasmid weight ratio 1:0.2:1.8 (TR2)
[5] = molecular target: hSlo1EM-TS (modified human Slo1 BK α subunit with a C-terminal twin-strep tag) (human) (UniProt Q12791); assay: pull-down + SEC; as a1 but plasmid weight ratio 1:0.2:1.8 (TR2)
[6] = molecular target: β3-Gρ (full-length human BK β3a subunit with C-terminal eGFP-ρ1D4) (human); assay: pull-down + SEC; TR1 (1:1:1); three-step affinity purification: streptactin XT (Slo1), then anti-FLAG M2 resin (β2) and anti-ρ1D4 resin (β3) one after the other, in either order; eluates, input and flow-through read by dual-colour FSEC
[7] = molecular target: hSlo1EM-TS (modified human Slo1 BK α subunit with a C-terminal twin-strep tag) (human) (UniProt Q12791); assay: as above
[8] = molecular target: hSlo1EM-TS (modified human Slo1 BK α subunit with a C-terminal twin-strep tag) (human) (UniProt Q12791); assay: pull-down + SEC; HEK293F co-transfected with hSlo1EM-TS, β2-RF and β3-Gρ at plasmid weight ratio 1:1:1 (TR1); digitonin extract; Slo1 held on streptactin XT resin, eluted with 50 mM biotin; eluate read by dual-colour FSEC (Superose 6 Increase; eGFP and mCherry)
[9] = molecular target: hSlo1EM-TS (modified human Slo1 BK α subunit with a C-terminal twin-strep tag) (human) (UniProt Q12791); assay: pull-down + SEC; as a3 but plasmid weight ratio 1:0.2:1.8 (TR2)

Sequence of hSlo1EM-TS (modified human Slo1 BK α subunit with a C-terminal twin-strep tag) (human) (Q12791 whole entry): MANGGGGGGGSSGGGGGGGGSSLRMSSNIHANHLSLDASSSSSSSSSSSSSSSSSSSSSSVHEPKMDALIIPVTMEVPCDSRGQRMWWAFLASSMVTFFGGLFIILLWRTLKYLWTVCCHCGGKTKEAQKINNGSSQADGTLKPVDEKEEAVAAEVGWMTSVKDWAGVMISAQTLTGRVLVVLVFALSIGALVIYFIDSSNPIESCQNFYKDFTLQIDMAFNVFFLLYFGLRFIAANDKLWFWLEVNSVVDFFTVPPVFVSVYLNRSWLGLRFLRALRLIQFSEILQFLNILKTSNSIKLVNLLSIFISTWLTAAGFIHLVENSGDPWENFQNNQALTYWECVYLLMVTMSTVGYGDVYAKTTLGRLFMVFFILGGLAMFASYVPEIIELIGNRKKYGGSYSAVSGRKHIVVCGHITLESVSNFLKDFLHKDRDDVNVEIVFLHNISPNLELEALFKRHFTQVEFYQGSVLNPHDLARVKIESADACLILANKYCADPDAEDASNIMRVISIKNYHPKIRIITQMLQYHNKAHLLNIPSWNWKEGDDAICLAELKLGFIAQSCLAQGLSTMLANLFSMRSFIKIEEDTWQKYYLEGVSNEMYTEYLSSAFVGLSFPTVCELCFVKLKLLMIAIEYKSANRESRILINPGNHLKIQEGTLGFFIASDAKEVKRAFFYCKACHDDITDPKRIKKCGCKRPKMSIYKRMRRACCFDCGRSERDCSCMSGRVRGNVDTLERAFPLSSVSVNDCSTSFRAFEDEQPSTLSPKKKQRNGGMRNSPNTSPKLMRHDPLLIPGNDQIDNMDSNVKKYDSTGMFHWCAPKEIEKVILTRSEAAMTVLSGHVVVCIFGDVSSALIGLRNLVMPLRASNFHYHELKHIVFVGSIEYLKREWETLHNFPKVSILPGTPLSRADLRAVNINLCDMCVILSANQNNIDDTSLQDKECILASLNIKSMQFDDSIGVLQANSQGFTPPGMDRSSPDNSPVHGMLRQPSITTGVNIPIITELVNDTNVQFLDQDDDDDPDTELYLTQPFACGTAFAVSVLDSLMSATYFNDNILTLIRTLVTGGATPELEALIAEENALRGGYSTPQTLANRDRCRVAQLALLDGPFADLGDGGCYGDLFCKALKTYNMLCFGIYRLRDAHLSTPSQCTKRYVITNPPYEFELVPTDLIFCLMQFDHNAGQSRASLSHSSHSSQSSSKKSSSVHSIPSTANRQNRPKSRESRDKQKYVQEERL
Sequence of mouse Slo1 (mSlo1) α-subunit (mouse) (Q08460 whole entry): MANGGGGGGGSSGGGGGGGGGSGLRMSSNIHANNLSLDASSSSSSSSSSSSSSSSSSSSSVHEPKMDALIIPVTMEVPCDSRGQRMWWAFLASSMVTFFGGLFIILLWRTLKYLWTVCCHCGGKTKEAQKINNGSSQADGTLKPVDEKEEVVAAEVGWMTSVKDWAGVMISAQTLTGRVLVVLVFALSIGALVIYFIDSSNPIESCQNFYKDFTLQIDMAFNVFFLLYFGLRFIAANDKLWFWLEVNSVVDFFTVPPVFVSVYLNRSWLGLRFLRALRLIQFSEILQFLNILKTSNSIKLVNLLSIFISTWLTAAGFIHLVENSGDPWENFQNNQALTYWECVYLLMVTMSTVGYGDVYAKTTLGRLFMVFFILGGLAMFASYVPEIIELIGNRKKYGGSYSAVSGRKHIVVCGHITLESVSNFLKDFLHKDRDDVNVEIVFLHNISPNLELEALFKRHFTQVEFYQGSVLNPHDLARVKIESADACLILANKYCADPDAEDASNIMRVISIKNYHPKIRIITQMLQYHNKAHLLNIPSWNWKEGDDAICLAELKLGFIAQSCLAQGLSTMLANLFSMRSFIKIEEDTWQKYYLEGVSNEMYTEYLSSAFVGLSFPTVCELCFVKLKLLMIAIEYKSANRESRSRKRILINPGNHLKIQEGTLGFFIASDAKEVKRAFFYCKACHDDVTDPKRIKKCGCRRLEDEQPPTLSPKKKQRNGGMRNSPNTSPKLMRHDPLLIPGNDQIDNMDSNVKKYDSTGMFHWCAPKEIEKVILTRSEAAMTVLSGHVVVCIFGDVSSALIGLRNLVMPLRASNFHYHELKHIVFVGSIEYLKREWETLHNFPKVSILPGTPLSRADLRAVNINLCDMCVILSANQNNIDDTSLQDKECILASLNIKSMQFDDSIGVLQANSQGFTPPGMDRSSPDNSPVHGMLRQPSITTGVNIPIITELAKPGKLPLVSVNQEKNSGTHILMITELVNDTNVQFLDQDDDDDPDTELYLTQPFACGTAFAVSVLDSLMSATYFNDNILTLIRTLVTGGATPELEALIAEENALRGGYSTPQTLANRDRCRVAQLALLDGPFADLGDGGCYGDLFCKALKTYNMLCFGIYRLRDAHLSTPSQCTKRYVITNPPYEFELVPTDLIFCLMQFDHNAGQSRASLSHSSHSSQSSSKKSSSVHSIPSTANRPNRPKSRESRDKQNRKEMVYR

B1: mouse β3a (mβ3a) (natural protein)
chain: MQPFSIPVQITLQGGRRRQGRTALPASGKINGDPLKVHPKLPSSAGEDRAMLLGVAMMASSVLMFFLLGTTVLKPFMLRSPREESNCTTVHTHIVDDGLDFSFTCEGSCQDHGRSPCLQVFVNLSHSGQKVLLHYDDEAIRTNPKCFYTPKCHGDRDDLLNSVLDIKEFFDHNNGTFPCFYSPDGPLGVVLRKSGHKVVFHCLFWPLLTLLGGALIVGLVRLTQHLSFQCEQYSTVVRA
single-channel recordings from oocytes with BK α and 1:8 β2:β3a: of 16 patches with β3a-type tail openings, those that also show β2-like recovery from inactivation without reopening (of 16 patches) (human β2 (hβ2) (human) [1]): 14
global fit of the trypsin digestion time courses of BK currents (mSlo1 with β2:β3a injection ratios 1:4 to 1:24, β2 alone, β3a alone): random mixing model against segregated model (fold lower sum of squares) (human β2 (hβ2) (human) [2]): 2.5
time course of trypsin removal of inactivation of α+β3a currents in excised oocyte patches, described by I(t)=(1-exp(-t/τ))^4; β subunits per channel (β subunits per channel) [3]: 4

B2: human β2 (hβ2) (natural protein)
chain: MFIWTSGRTSSSYRHDEKRNIYQKIRDHDLLDKRKTVTALKAGEDRAILLGLAMMVCSIMMYFLLGITLLRSYMQSVWTEESQCTLLNASITETFNCSFSCGPDCWKLSQYPCLQVYVNLTSSGEKLLLYHTEETIKINQKCSYIPKCGKNFEESMSLVNVVMENFRKYQHFSCYSDPEGNQKSVILTKLYSSNVLFHSLFWPTCMMAGGVAIVAMVKLTQYLSLLCERIQRINR
time course of trypsin removal of inactivation of α+β2 currents in excised oocyte patches, described by I(t)=(1-exp(-t/τ))^4; β subunits per channel (β subunits per channel) [3]: 4

B3: β2-RF (full-length human BK β2 subunit with C-terminal mCherry-FLAG) (natural protein)
chain: MFIWTSGRTSSSYRHDEKRNIYQKIRDHDLLDKRKTVTALKAGEDRAILLGLAMMVCSIMMYFLLGITLLRSYMQSVWTEESQCTLLNASITETFNCSFSCGPDCWKLSQYPCLQVYVNLTSSGEKLLLYHTEETIKINQKCSYIPKCGKNFEESMSLVNVVMENFRKYQHFSCYSDPEGNQKSVILTKLYSSNVLFHSLFWPTCMMAGGVAIVAMVKLTQYLSLLCERIQRINR
percent of Slo1–β3 complexes that are ternary (hold β2 too) [4]: 37%
molar ratio of β2-RF to β3-Gρ affiliated with Slo1 [5]: 1.08 mol/mol
percent of Slo1–β3 complexes that are ternary (hold β2 too) [6]: 49%
stoichiometry N (β2 per 4 Slo1) [7]: 2.8
molar ratio of β2-RF to β3-Gρ affiliated with Slo1 [8]: 7.32 mol/mol
stoichiometry N (β2 per 4 Slo1) [9]: 1.9

From paper PMC12646051
